Experimental data published in paper PMC5533101 (Journal of Alzheimer's disease : JAD, 2004).

Target: AβO(1-42), oligomeric non-fibrillar Aβ prepared from the peptide Aβ_(1-42) (UniProt P05067 672-713)
Experiment: SPR

Kd: 76.8 nM
B1: TR#2, recombinant TR segment containing the extracellular domain (ectodomain) (domain or fragment, UniProt Q9UIK5 56-301, looked up)
chain: CSGYDDRENDLFLCDTNTCKFDGECLRIGDTVTCVCQFKCNNDYVPVCGSNGESYQNECYLRQAACKQQSEILVVSEGSCATDAGSGSGDGVHEGSGETSQKETSTCDICQFGAECDEDAEDVWCVCNIDCSQTNFNPLCASDGKSYDNACQIKEASCQKQEKIEVMSLGRCQDNTTTTTKSEDGHYARTDYAENANKLEESAREHHIPCPEHYNGFCMHGKCEHSINMQEPSCRCDAGYTGQHCE
